# Numbering of substitutions follows the chain as printed. No end group written: not given here. Me3 = trimethyl; Me2 = dimethyl
# T1: PHD1 (KDM5C residues 318–378) (human, UniProt P41229-1 318-378)
# T1 construct: KDM5C, human, PHD1 domain, residues 318-378; 15N-labelled (or 15N,13C) for NMR; also called PHD1 domain of KDM5C; source: E. coli BL21(DE3), M9 minimal medium, purified (Ni-NTA, MonoQ flow-through); not shown: 6xHis, N-terminal, cleaved; SUMO (Smt3), N-terminal, cleaved
# T1 sequence (looked up): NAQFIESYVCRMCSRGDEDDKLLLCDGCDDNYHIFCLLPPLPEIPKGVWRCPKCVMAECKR
# T2: PHD1 D343A mutant (human, UniProt P41229-1 318-378, D343A)
# T2 construct: KDM5C, human, PHD1 domain, residues 318-378 (limits as told for wild-type PHD1)
# T2 sequence (looked up): T1 sequence (looked up) with D26A
# T3: Avitag-PHD1 (human, UniProt P41229-1 318-378, biotin on the Avitag (BirA co-expression))
# T3 construct: KDM5C, human, PHD1 domain, residues 318-378; 6xHis-SUMO-Avitag-(GS)2-PHD1 before cleavage by SenP1; also called biotinylated Avitag-PHD1; Avitag-(GS)2-PHD1; source: E. coli BL21(DE3), co-expressed with BirA, purified (Ni-NTA, MonoQ flow-through); not shown: 6xHis, N-terminal, cleaved; SUMO (Smt3), N-terminal, cleaved; Avitag-(GS)2, N-terminal, kept
# T3 sequence (looked up): T1 sequence (looked up)
# B1: H3 (1–18) tail peptide (peptide, UniProt P68431 2-19, looked up)
# peptide: ARTKQTARKSTGGKAPRK
# notes: histone H3 N-terminal tail, residues 1-18; also called H3 (1–18) peptide; H3K4me0 (1–18); source: synthetic peptide (GenScript)
# B2: H3K4me1 (1–18) peptide (peptide, UniProt P68431 2-19, looked up)
# peptide: ARTK(Me)QTARKSTGGKAPRK
# notes: histone H3 N-terminal tail, residues 1-18; source: synthetic peptide (GenScript)
# B3: H3K4me2 (1–18) peptide (peptide, UniProt P68431 2-19, looked up)
# peptide: ARTK(Me2)QTARKSTGGKAPRK
# notes: as for B2
# B4: H3K4me3 (1–18) peptide (peptide, UniProt P68431 2-19, looked up)
# peptide: ARTK(Me3)QTARKSTGGKAPRK
# notes: as for B2
# B5: KDM5C (295–314) peptide (peptide)
# peptide: Ac-KEELSHSPEPCTKMTMRLRR-NH2
# notes: KDM5C, human, ARID-PHD1 linker, residues 295-314; source: synthetic peptide (GenScript)
# Columns and labels:
# Conditions in all cases: both partners purified
# [1] = molecular target: T1, PHD1 (KDM5C residues 318–378); assay: NMR titration; 2D 1H-15N HSQC of 200 μM 15N-PHD1 with increasing peptide up to 1:5 PHD1:peptide; 50 mM HEPES pH 7.5, 50 mM KCl, 5 mM BME, 50 μM ZnCl2, 5% D2O, 298 K; Kd from chemical shift change of one residue (I361 or D343), quadratic binding equation
# PHD1 D343A mutant = molecular target: T2, PHD1 D343A mutant; assay: as above
# Avitag-PHD1 = molecular target: T3, Avitag-PHD1; assay: BLI; biotinylated Avitag-PHD1 (100 nM) loaded on streptavidin biosensors; 100 μM peptide; 50 mM HEPES pH 8, 50 mM KCl, 50 μM ZnCl2, 5 mM BME, 0.05% Tween-20; 25 °C; two phase exponential fit
binder,measurement,setting,value
B1,Kd,[1],130 µM
same,fold decrease in affinity against wild-type PHD1,PHD1 D343A mutant,≥ 10 fold
B2,binding result,[1],binds
B3,binding result,[1],binds
B4,binding result,[1],binds
Ac-QSVQPSKFNSYGRRAKRLQP-NH2 (source: synthetic peptide (GenScript)) [KDM5C (199–218) peptide],fold lower affinity than the H3 tail,[1],~3 fold
B5,binding result,Avitag-PHD1,binds

# Source: article PMC10247153, “Chromatin Sensing by the Auxiliary Domains of KDM5C Regulates Its Demethylase Activity and Is Disrupted by X-linked Intellectual Disability Mutations” (Journal of molecular biology, 2022)
